Target: VcSiaP R125A Q54R1 L173R1 with N-terminal HisTEV tag (Vibrio cholerae) (UniProt Q9KR64)
Test: crystal structure

Work on “VcSiaP R125A Q54R1 L173R1 with N-terminal HisTEV tag (from UniProt Q9KR64 23-321) (natural protein)” yielded a stoichiometry N of 2.
